Source: PMC10470925 (PLOS ONE, 2023)

Target: the molecule itself
Assay: deoxycholate-induced oligomerization, PAGE and western blot

B1: Staphylococcus aureus alpha-hemolysin (Hla) (natural protein)
chain: ADSDINIKTGTTDIGSNTTVKTGDLVTYDKENGMHKKVFYSFIDDKNHNKKLLVIRTKGTIAGQYRVYSEEGANKSGLAWPSAFKVQLQLPDNEVAQISDYYPRNSIDTKEYMSTLTYGFNGNVTGDDTGKIGGLIGANVSIGHTLKYVQPDFKTILESPTDKKVGWKVIFNNMVNQNWGPYDRDSWNPVYGNQLFMKTRNGSMKAADNFLDPNKASSLLSSGFSPDFATVITMDRKASKQQTNIDVIYERVRDDYQLHWTSTNWKGTNTKDKWTDRSSERYKIDWEKEEMTN
stoichiometry N: 7
